Test results: the supplement of paper PMC12042874
± gives the uncertainty stated by the source.

Assay: amyloid nucleation score (Sup35N fusion, yeast selection) (log enrichment); library NNK3; higher = more nucleation; inactive = no reads after selection
How it was run: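 Three technical output replicates were used for random libraries. Psi-negative yeast expressing peptides of 20 random codons fused to Sup35N were induced with 100 μM copper sulfate for 24 hours and grown 7 days at 30°C on medium lacking adenine and uracil, and input and output plasmid inserts were Illumina-sequenced, excluding sequences with under 100 input reads. The nucleation score is the DiMSum log enrichment of output over input reads, centred on the mode score of non-aggregating sequences.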

Substance | amyloid nucleation score
LDVGIVYSLVVCRKIRRSL | inactive
LDVIFSKTFMEIVTLVVSLD | inactive
LDVLKMGIVV | inactive
LEAHESIRFCP | inactive
LEEDVHISFHHIFDRFCPTT | inactive
LENNIRSDSTFSTWTHDQCQ | inactive
LERYWCTNRGFNRWMQAYKD | inactive
LFAAYCFVYDIQFTRVPGAW | inactive
LFALSWTS | 0.182 ± 0.35
LFARRVGSYCVIVCQPVLWE | inactive
LFCGT | inactive
LFDFHSSCKSAVIAYLLSRR | 0.138 ± 0.47
LFDRTLL | inactive
LFEVSS | inactive
LFFCHYILY | 1.58 ± 0.087
LFFLRRNCHTDVSSLEYDNA | inactive
LFFLTCRCVRNAYHRYMVCI | inactive
LFGFLYFVV | -0.564 ± 0.82
LFGTRIYGLFLCSLNLCRRV | inactive
LFHSAMNGSHFSTVHSNSVI | inactive
LFIMFCFGIRCLEPDIRHCY | inactive
LFKGGDSICYSHWSVRSSRK | 1.09 ± 0.12
LFLAKRSLSDTLFQPDPFSR | inactive
LFLDVSIYVCPEGILRKS | 2.65 ± 0.084
LFLKSLCCFRICTNFIKVEL | inactive
LFLRPNANRYVH | inactive
LFLRTEKIRFRSTRLVTLSC | inactive

Substance | amyloid nucleation score
LFLYLCTVYNDFKELQPRNL | 2.67 ± 0.07
LFMGCPVEV | -0.515 ± 0.62
LFMTRSFILYFTYPFRYGVV | inactive
LFRLYKYLQCPSQGWCPRH | inactive
LFSEFQ | 0.574 ± 0.32
LFSGSHWCRDNMWSSGAIDA | inactive
LFSNSLNFLIK | 0.679 ± 0.28
LFSWRKYGVNHQLLGVEIQS | inactive
LFVFIYSVSGLLDDGVGLGG | inactive
LFVLSTKSLFP | 1.39 ± 0.089
LFYLYF | inactive
LGCRYFHYAILNPHQLDKIG | inactive
LGFMKSFLGYSY | inactive
LGIQYLDETHCPKSTSKGFS | inactive
LGITNGRL | inactive
LGLDTSSSVYCQSCGVRFSV | inactive
LGLMLDILRKQDC | inactive
LGMCSHESYNLHEEICIW | inactive
LGNISCELARIELHAPAIR | inactive
LGNSAKVVLRWVEGVGLGVA | inactive
LGRANIHATIACM | inactive
LGRCDVIVKEFVTIIA | inactive
LGSIRSSKCKNLVICIGPMC | 2.41 ± 0.051
LGSVVRRDEGIVGESY | 0.078 ± 0.6
LGSWLWR | inactive
LGTWFWVVVG | inactive
LGVCSGH | inactive

Substance | amyloid nucleation score
LGYMLNGGRMQKNATNKSGA | inactive
LHIGLNS | inactive
LHMIVALSSSSSMTYDVRVV | inactive
LHWSIDR | inactive
LHYICQKLGGMWMVLVCRAC | inactive
LHYLLTLARKSEWHYLLDIR | inactive
LIFGVIPCQPR | inactive
LIFWRPIGDEHYLWPLPFYL | inactive
LIGFLNNSVFMSAGY | inactive
LIGQFISYIKSVIGSDRKGC | inactive
LIHICHRVQPHMSCDCVAMW | inactive
LIKCPIRYDDYKRPWLAS | inactive
LILCRCCSGVYRTRVMKLLL | inactive
LIPSKRTSDRLFLGPATLDF | inactive
LIRNEGFCEKS | 0.244 ± 0.14
LIRTARSLYWAYVHLAVSWR | inactive
LITCI | inactive
LKAKCVIMSLPLDMGYHGKR | inactive
LKDCTCEFIFMTGKYCIYFR | -0.495 ± 0.76
LKISALTIESMF | inactive
LKLFWSLET | inactive
LKNVTDKMHTYLRLEGSRHV | inactive
LKRSFNDFEFH | inactive
LKRYFI | inactive
LKTNCTPNMLFGFLSEMMRC | inactive
LKVFKWKISTLMKAAQPIAS | inactive
